B1: Phage-1196 (peptide)
peptide: SCSAGAGWAWPMCF
B2: Phage-1195 (peptide)
peptide: SCSAVFSYRWPKCL
B3: Phage-1199 (peptide)
peptide: TCAAGANYSWPACL
B4: Phage-1198 (peptide)
peptide: SCADGFNYVWPLCF
B5: Phage-1192 (peptide)
peptide: SCAAGAHWSWPVCF
B6: Phage-1194 (peptide)
peptide: SCSAGATWAWPQCF
B7: Phage-1191 (peptide)
peptide: PCSDGVAYPWPYCV
B8: Phage-1197 (peptide)
peptide: SCAAGFDYGWPMCL
B9: Phage-1193 (peptide)
peptide: LCSAGAMYPWPVCL
B10: Phage-985 (peptide)
peptide: TCSAGAHYPWPDCI
B11: Phage-984 (peptide)
peptide: LCKPGVPNSWPTCL
B12: Phage-992 (peptide)
peptide: SCSAGASLQLSICL
B13: Phage-989 (peptide)
peptide: TCSAGAMWTWPYCF
B14: Phage-988 (peptide)
peptide: MCSAGAMYPWPLCL
B15: Phage-993 (peptide)
peptide: TCSAGATWAWPSCF
B16: Phage-987 (peptide)
peptide: LCNAGAMYKWPTCL
B17: Phage-1050 (peptide)
peptide: LCNAGAPYKWPTCL
B18: Phage-990 (peptide)
peptide: TCAAGAYWTWPACF
B19: Phage-991 (peptide)
peptide: TCSAGAGYPWPLCY

One assay addresses anti-CD28 Fab (SEQ ID NOs: 202, 203). Briefly: phage ELISA, Fab on plate.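 Note: ELISA of crude clonal phage supernatants on the plate, wells preloaded with CD28 antigen or only blocking buffer, captured phage read out via HRP-linked anti-M13 antibody.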 A general note: In an ELISA, binding on a coated surface is turned into a signal by an enzyme label.
Protocol: (§1) After panning, phage infected bacteria were plated out and colonies picked into 96 well blocks. Clonal phage was then amplified and separated from bacterial cells via centrifugation.
(§2) Clonal phage were harvested as crude supernatants and screened via standard ELISAs. […] Prior to the addition of clonal phage, wells were incubated with blocking buffer and CD28 antigen or blocking buffer alone. Without washing or aspirating, clonal phage supernatants were then added to the wells and incubated for a short time. Wells were then washed followed by detection of bound phage using a horse radish conjugated anti-M13 antibody. Clonal phage of interest were then sent for sequence analysis.
Turning to B1, the “Anti-CD28 Fab signal” value came to 1.16.
Still for that read-out and setting: for B2 the value was 1.18; for B3, 1.14; for B4, 1.14.
Same read-out and setting: as for B5, the figure is 1.2; as for B6, 1.19.
For B7, the “Anti-CD28 Fab signal” value was 1.2.
Still for that read-out and setting: as for B8, the figure is 1.16; as for B9, 1.19.

The target in a further assay is T1, Anti-CD28 Fab (SEQ ID NOs: 202, 203).
T1 construct: biotinylated and captured on neutravidin coated plates in the phage ELISA
T1 sequence (VH, as listed by the source, chain 1 of 2): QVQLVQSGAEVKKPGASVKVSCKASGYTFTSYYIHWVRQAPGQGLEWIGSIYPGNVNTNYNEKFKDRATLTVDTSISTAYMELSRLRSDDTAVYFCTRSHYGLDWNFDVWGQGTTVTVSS
T1 sequence (VL, as listed by the source, chain 2 of 2): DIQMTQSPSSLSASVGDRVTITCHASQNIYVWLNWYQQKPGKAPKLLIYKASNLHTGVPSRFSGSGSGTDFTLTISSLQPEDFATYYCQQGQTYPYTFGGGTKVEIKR
As to the kind of experiment: phage binding ELISA, Fab on plate, CD28 as competitor.
Protocol: as §1, §2
With B10, the “Anti-CD28 Fab signal in the presence of CD28” value (“Anti-CD28 Fab signal … of CD28” below) was 0.07.
The same measure, in the same setting: for B11 the value was 0.06.
The same measure, in the same setting: for B12 the value was 0.06; for B13, 0.08.
Same read-out and setting: for B14 the value was 0.07; for B15, 0.1.
Consider B16, for which the “Anti-CD28 Fab signal … of CD28” value was 0.06.
Still for that read-out and setting: as for B17, the figure is 0.07.
The same measure, in the same setting: as for B18, the figure is 0.09.
Same read-out and setting: as for B19, the figure is 0.08.

Another assay has the same target. Briefly: phage binding ELISA, Fab on plate.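 Note: clonal phage supernatant ELISA, wells preincubated with CD28 antigen or blocking buffer only, then bound phage detected using HRP-linked anti-M13 antibody.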
Protocol: as §1, §2
In the case of B10, the “Anti-CD28 Fab (SEQ ID NOs: 202, 203) signal” value was 1.95.
Still for that read-out and setting: as for B11, the figure is 1.95.
The same measure, in the same setting: for B12 the value was 1.92; for B13, 1.93; for B14, 1.93.
The same measure, in the same setting: as for B15, the figure is 1.92; as for B16, 1.94; as for B17, 1.66.
With B18, the “Anti-CD28 Fab (SEQ ID NOs: 202, 203) signal” value was determined as 1.93.
On the same count and under the same terms, as for B19, the figure is 1.92.

In a further assay the target is anti-CD28 Fab (SEQ ID NOs: 202, 203). Briefly: phage ELISA, Fab on plate, CD28 antigen as competitor.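 Note: wells pre-incubated with CD28 antigen in blocking buffer (reference: blocking buffer only) before adding crude clonal phage supernatant, bound phage read with HRP-coupled anti-M13 antibody.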
Chain of anti-CD28 Fab (SEQ ID NOs: 202, 203) (VH, as listed by the source, chain 1 of 2): as the sequence (VH, as listed by the source, chain 1 of 2) above
Chain of anti-CD28 Fab (SEQ ID NOs: 202, 203) (VL, as listed by the source, chain 2 of 2): as the sequence (VL, as listed by the source, chain 2 of 2) above
Protocol: as §1, §2
In the case of B1, the “Anti-CD28 Fab signal … of CD28” value was 0.08.
The same measure, in the same setting: as for B2, the figure is 0.06; as for B3, 0.08.
The same measure, in the same setting: for B4 the value was 0.08.
On the same count and under the same terms, for B5 the value was 0.08; for B6, 0.08; for B7, 0.06.
With B8, the “Anti-CD28 Fab signal … of CD28” value is 0.06.
Still for that read-out and setting: for B9 the value was 0.08.

These data come from patent US20260274955A1 (JANUX THERAPEUTICS, published 2026).
